According to US20180208655A1 (VENTANA MEDICAL SYSTEMS, published 2018):

Target: T1, human GPNMB (transmembrane glycoprotein NMB) (human, UniProt Q14956 23-572)
T1 construct: Endogenous GPNMB in human FFPE tissues and cells (IHC), A375 cell lysate (Western blot) and A375 cells (flow cytometry)
T1 sequence: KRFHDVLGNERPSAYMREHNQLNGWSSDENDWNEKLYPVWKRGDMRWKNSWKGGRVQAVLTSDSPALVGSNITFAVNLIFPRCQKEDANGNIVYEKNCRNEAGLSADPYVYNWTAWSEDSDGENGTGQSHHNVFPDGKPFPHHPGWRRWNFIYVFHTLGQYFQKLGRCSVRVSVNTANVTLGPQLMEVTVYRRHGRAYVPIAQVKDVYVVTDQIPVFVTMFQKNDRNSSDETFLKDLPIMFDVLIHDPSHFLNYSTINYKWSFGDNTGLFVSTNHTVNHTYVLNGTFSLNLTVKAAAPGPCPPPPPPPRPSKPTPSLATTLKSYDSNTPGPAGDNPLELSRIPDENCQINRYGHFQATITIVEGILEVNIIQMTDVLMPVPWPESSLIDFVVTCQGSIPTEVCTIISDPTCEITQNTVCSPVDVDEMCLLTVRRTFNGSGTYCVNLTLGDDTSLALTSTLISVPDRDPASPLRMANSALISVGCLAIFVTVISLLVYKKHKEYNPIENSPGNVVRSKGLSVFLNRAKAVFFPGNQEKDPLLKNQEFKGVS
Test: IHC screening of recombinantly expressed clones (after ELISA screening on the GPNMB antigen)

B1: rabbit anti-human GPNMB monoclonal antibody (SP299) (antibody, V domains shown)
VH: QSLEESGGGLVKPGGTLTLICTVSGIDLSTYGVIWVRQAPREGLEWIGFITRSGTTDYAAWANGRFTISKTSTTVDLKIASLTAADTATYFCARGGYRFNLWGHGTLVTVSS
VL: DPVMTQTPASVSEPVGGTVTIKCQASQSIYSYLAWYQQKPGQPPKLLIYKASSLESGVPSRLSGSGSGTEFTLTISDLECADAATYYCQGGYISTTVSFGYGFGGGTEVVVK
notes: also called anti-GPNMB antibody SP299; Anti-GPNMB monoclonal antibody (SP299)
**Q.** Does B1 bind?
**A.** Result: binds
